Data taken from patent US20210270842A1 (DYAX, published 2021).
Substitutions are numbered along the chain they refer to.

B1: 559B-M0068-D01 (Fab, V domains shown)
VH: EVQLLESGGGLVQPGGSLRLSCAASGFTFSIYPMSWVRQAPGKGLEWVSGISPSGGKTAYADSVKGRFTISRDNSKNTLYLQMNSLRAEDTAVYYCARGQGRAVRGKLYYYGMDVWGQGTTVTVSS
VL: QSALTQPPSASQTPGQTVTISCSGSSSNIGTNNVNWYQQLPGTAPKLLISSHHRRPSGVPDRFSASKSGTSASLAISGLQSEDEADYYCAAWDDSLNGPVFGGGTKLTVL
B2: 559B-M0035-F05 (Fab, V domains shown)
VH: EVQLLESGGGLVQPGGSLRLSCAASGFTFSHYPMAWVRQAPGKGLEWVSGIVSSGGRTVYADSVKGRFTISRDNSKNTLYLQMNSLRAEDTAVYYCARDPYDFWSEGAFDIWGQGTMVTVSS
VL: QSVLTQPPSASGTPGQRVTISCSGSSSNIGNNFVYWYHQVPGTAPKLLIYKNNQRPSGVPDRFSGSKSAASASLAISGLRSEDEADYYCAAWDNSLSGFYVFGAGTKVTVL
B3: 559B-M0065-B10 (Fab, V domains shown)
VH: EVQLLESGGGLVQPGGSLRLSCAASGFTFSKYFMTWVRQAPGKGLEWVSWISSSGGYTNYADSVKGRFTISRDNSKNTLYLQMNSLRAEDTAVYYCARGAYYYDAFDIWGQGTMVTVSS
VL: DIQMTQSPSSLSASVGDRVTITCRASQSIAIFLNWYQQTPGKPPKLLIYGASTLQSGVPSRFSGSGSGADFTLTISNLQLEDFTTYYCQQSYSTLYTFGQGTKLEIK
B4: 559B-M0035-H09 (Fab, V domains shown)
VH: EVQLLESGGGLVQPGGSLRLSCAASGFTFSWYGMHWVRQAPGKGLEWVSRIGPSGGPTSYADSVKGRFTISRDNSKNTLYLQMNSLRAEDTAVYYCARGYYGTGRYFQHWGQGTLVTVSS
VL: DIQMTQSPDSLSLSPGDRATLSCRASQSVGSDYLAWYQQKPGQAPRLLIYDASNRATGIPARFSGSGSGTDFTLTISSLEPEDFAVYYCQQRSNWPPTFGGGTKVEIK
B5: 559B-M0042-E06 (Fab, V domains shown)
VH: EVQLLESGGGLVQPGGSLRLSCAASGFTFSMYKMSWVRQAPGKGLEWVSVISPSGGRTYYADSVKGRFTISRDNSKNTLYLQMNSLRAEDTAVYYCARGTRTSGLDYWGQGTLVTVSS
VL: QSALTQPASVSGSPGQSITISCTGTSSDVGGYKYVSWYQQHPGKAPKLVIYEVSNRPSGVSNRFSGSKSGNTASLTISGLQAEDEADYYCSSYTSSTTVVFGGGTKLTVL
B6: 559B-M0043-C06 (Fab, V domains shown)
VH: EVQLLESGGGLVQPGGSLRLSCAASGFTFSAYAMRWVRQAPGKGLEWVSYISSSGGETMYADSVKGRFTISRDNSKNTLYLQMNSLRAEDTAVYYCANGYGRIDYWGQGTLVTVSS
VL: B5 VL with A3V, V29I, K33N, V49M, S96G, T97S, V99R, G103T, K106R, L107V
B7: 559B-M0067-G11 (Fab, V domains shown)
VH: EVQLLESGGGLVQPGGSLRLSCAASGFTFSPYEMVWVRQAPGKGLEWVSSIVPSGGWTVYADSVKGRFTISRDNSKNTLYLQMNSLRAEDTAVYYCASPSGRGLAFDIWGQGTMVTVSS
VL: DIQMTQSPGTLSLSPGERATLSCRASQSISSSYLAWYQQKPGQAPRLLIYGASSRATGVPDRFSGSGSGTEFTLTISSLQPEDFATYYCLQQKSYPYTFGQGTKVEIK
B8: 559B-M0069-C09 (Fab, V domains shown)
VH: EVQLLESGGGLVQPGGSLRLSCAASGFTFSMYDMHWVRQAPGKGLEWVSSISSSGGYTQYADSVKGRFTISRDNSKNTLYLQMNSLRAEDTAMYYCARDRGLIAAAGGFDPWGQGTLVTVSS
VL: DIQMTQSPSSLSASVGDRVTITCRASQSIGIYLNWYQQKPGTAPKLLIYAASSLQSGVPSRFTGSGSGTDFTLTISSLQPDDFATYYCQRTYGRPLTFGGGTKVEIK
B9: 559B-M0017-H08 (Fab, V domains shown)
VH: EVQLLESGGGLVQPGGSLRLSCAASGFTFSPYWMHWVRQAPGKGLEWVSVISPSGGGTGYADSVKGRFTISRDNSKNTLYLQMNSLRAEDTAVYYCARESRGSGSHEDYWGQGTLVTVSS
VL: DIQMTQSPATLSLSPGERATLSCRASQSVSSYLAWYQQKPGQAPRLLIYGASNRGTGIPARFSGSGSGTEFTLTISSLQSEDFAVYFCQQYKNWPNLTFGGGTKVDIK
B10: 559B-M0004-E08 (Fab, V domains shown)
VH: EVQLLESGGGLVQPGGSLRLSCAASGFTFSMYHMNWVRQAPGKGLEWVSSIYSSGGSTRYADSVKGRFTISRDNSKNTLYLQMNSLRAEDTAVYYCARGVRYGMDVWGQGTTVTVSS
VL: DIQMTQSPSSVSASVGDRVTITCRASQGISSWLAWYQQKPGKAPKLLIYAASSLQSGVPSRFSGSGSGTDFTLTISSLQPEDFATYYCQQANSFPITFGQGTRLEIK
B11: 559B-M0039-G07 (Fab, V domains shown)
VH: EVQLLESGGGLVQPGGSLRLSCAASGFTFSRYRMRWVRQAPGKGLEWVSGISPSGGWTYYADSVKGRFTISRDNSKNTLYLQMNSLRAEDTAVYYCTTDNGDYALAHWGQGTLVTVSS
VL: DIQMTQSPSSLSASVGDRVTITCRASQRIINYLNWYQQKPGKAPKLLIYAASSLQSGVPSRFSGSGSGTDFTLTISSLQPEDFATYYCQQSYSAPLTFGGGTRVEIK
B12: 559B-M0003-A08 (Fab, V domains shown)
VH: EVQLLESGGGLVQPGGSLRLSCAASGFTFSAYVMRWVRQAPGKGLEWVSSIGSSGGPTYYADSVKGRFTISRDNSKNTLYLQMNSLRAEDTAVYYCARRGGSGSSHAFDIWGQGTMVTVSS
VL: B11 VL with R28S, I30S, N31S, F83S, A84G, S91Y, Y92N, A94F, R103K
B13: 559B-M0054-B11 (Fab, V domains shown)
VH: EVQLLESGGGLVQPGGSLRLSCAASGFTFSYYGMNWVRQAPGKGLEWVSVISPSGGLTVYADSVKGRFTISRDNSKNTLYLQMNSLRAEDTAMYYCATGFAVQHGGGAFDIWGQGTMVTVSS
VL: DIQMTQSPATLSMSPGERATLSCRASQSVTTYLAWYQQKPGQAPRLLIYDASIRATGVPARFSGSGSGTDFTLTISRLEPEDFAVYYCQQRTIWPLTFGGGTKVEIK
B14: 559B-M0070-H10 (Fab, V domains shown)
VH: EVQLLESGGGLVQPGGSLRLSCAASGFTFSTYGMRWVRQAPGKGLEWVSVISPSGGKTNYADSVKGRFTISRDNSKNTLYLQMNSLRAEDTAVYYCARGRPDYYAMDVWGQGTTVTVSS
VL: QSALTQPPSASGAPGQRVTISCSGSSSNIGSNTVNWYQKLPGTAPKLLIYYNDRRPSGVPDRFSGSKSGNTASLTISGLQAEDEADYYCAAWDDSLSGPVFGGGTKLTVL
notes: also called M070-H10
B15: 559B-M0064-H02 (Fab, V domains shown)
VH: EVQLLESGGGLVQPGGSLRLSCAASGFTFSQYIMGWVRQAPGKGLEWVSSIGSSGVTVYADSVKGRFTISRDNSKNTLYLQMNSLRAEDTAVYYCARGGGVTVLHAFDIWGQGTMVTVSS
VL: QSALTQPASVSGSPGQSITISCTGTSSDVGGYNYVSWYQQHPGKVPKLIIYEGNKRPSGVPDRFSGSKAGNTASLTVSGLQAEDEADYYCTAYGGHSRFYVFGTGTKVTVLG
notes: Purified recombinant Fab; …GQPKANP)

Each binder was assayed against T1, intact high molecular weight kininogen (HMWK) (Homo sapiens, UniProt P01042 19-644) (assay: ELISA: Fab coated on 96-well plate, LowCross block, biotinylated antigen, streptavidin-HRP; signal over uncoated well).
T1 construct: also called intact HMWK; 1-chain HMWK
T1 sequence: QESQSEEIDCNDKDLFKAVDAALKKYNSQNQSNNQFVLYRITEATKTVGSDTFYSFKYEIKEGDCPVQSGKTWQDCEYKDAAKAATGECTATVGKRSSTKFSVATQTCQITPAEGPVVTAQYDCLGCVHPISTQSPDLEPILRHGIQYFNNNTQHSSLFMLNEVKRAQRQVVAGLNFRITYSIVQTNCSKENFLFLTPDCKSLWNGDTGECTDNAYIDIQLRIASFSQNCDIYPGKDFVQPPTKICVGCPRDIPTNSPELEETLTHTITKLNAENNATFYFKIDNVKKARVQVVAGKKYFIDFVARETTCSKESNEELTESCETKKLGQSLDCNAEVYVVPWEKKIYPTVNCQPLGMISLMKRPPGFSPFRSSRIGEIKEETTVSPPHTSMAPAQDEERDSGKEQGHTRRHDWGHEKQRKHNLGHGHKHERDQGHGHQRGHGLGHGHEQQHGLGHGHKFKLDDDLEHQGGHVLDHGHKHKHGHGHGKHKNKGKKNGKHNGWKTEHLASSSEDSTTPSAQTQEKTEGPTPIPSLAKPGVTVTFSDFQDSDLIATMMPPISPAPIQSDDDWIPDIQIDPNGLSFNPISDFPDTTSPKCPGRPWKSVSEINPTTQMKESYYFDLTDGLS
Description: Thirty-six purified Fab clones (see Table 2 below) were assessed for binding to cleaved HWMK, intact HMWK, and LWMK using the immunoassay described in Example 1. Specifically, each of the purified Fab clones was immobilized on 96-well assay plates at a concentration of […]) in a total volume of 100 μL in PBS and incubated overnight at 2-8° C. The assay plates were blocked using LowCross blocking buffer. Biotinylated intact HMWK, biotinylated cleaved HMWK or biotinylated LMWK ([…]) was added to each well in a total volume of 100 μL and incubated for 2 hours prior to washing with a wash buffer. HRP-labeled streptavidin was added to each well at a concentration of 100 ng/mL, and the signal was developed using Ultra TMB Substrate. The signal to noise ratio was calculated using the signal observed upon the addition of the biotinylated protein to an uncoated well. (FIG. 2, panels A and B). Based on the ELISA results, the antibodies can be divided among 5 categories (Table 2).

Row | Binder | binding result
1 | B1 | binds
2 | B2 | binds
3 | B3 | binds
4 | B4 | binds
5 | B5 | binds
6 | B6 | binds
7 | B7 | binds
8 | B8 | binds
9 | B9 | binds
10 | B10 | binds
11 | B11 | binds
12 | B12 | binds
13 | B13 | binds

The binders below were run against T1, intact high molecular weight kininogen … (assay: Fab passively immobilized on 384-well plate, biotinylated antigen, streptavidin-HRP).
Description: A: plots the ratio of the result of a 2-chain HWMK binding assay to a LMWK binding assay on the y-axis compared to the ratio of the result of a 2-chain HMWK binding assay to a 1-chain HMWK binding assay on the x-axis for each antibody (Fab) tested. Recombinant Fab fragments were passively immobilized onto 384-well plates prior to addition of biotinylated 2-chain HMWK, 1-chain HMWK, or LMWK, followed by streptavidin-HRP.
The depleted library was then contacted with biotinylated 2-chain HMWK immobilized on streptavidin coated magnetic beads. The beads were extensively washed with PBS buffer and used to infect E. coli for phage output amplification to complete a round of selection. Three rounds of selection were performed prior to screening individual phage colonies by ELISA with biotinylated 1-chain and 2-chain HMWK immobilized on streptavidin coated plates followed by detection with horse radish peroxidase (HRP) conjugated anti-M13 antibody and absorbance detection due to substrate hydrolysis for 3,3′,5,5′-Tetramethylbenzidine (TMB). […] The specificity of each purified Fab was determined by coating 384 well plates and measuring binding to biotinylated 1-chain HMWK, to biotinylated 2-chain HMWK, or to biotinylated LMWK, followed by detection with streptavidin conjugated to HRP and TMB detection.

Row | Binder | binding result
14 | B14 | binds
15 | B15 | binds
